In patent publication US20240124560A1:

How the values were obtained:
Experiment in all cases: cell-based or functional assay
[1] = target: HIV-1 Env of NAC_92BR020 (HIV-1)
[2] = target: HIV-1 Env of NAC_JRCSF (HIV-1) (UniProt P20871)
[3] = target: HIV-1 Env of NAC_KNH1144 (HIV-1)
[4] = target: HIV-1 Env of NAC_REJO.67 (HIV-1)
[5] = target: HIV-1 Env of NAC_SS1196.1 (HIV-1)
[6] = target: HIV-1 Env of NIH-011_1056.10.TA11.1826 (HIV-1)
[7] = target: HIV-1 Env of NIH-014_6244.13.B5.4567 (HIV-1)
[8] = target: HIV-1 Env of NIH-015_62357.14.D3.4589 (HIV-1)
[9] = target: HIV-1 Env of NIH-018_Du172.17 (HIV-1)
[10] = target: HIV-1 Env of NIH-024_ZM53M.PB12 (HIV-1)
[11] = target: HIV-1 Env of NIH-029_HIV-001428.2.42 (HIV-1)
[12] = target: HIV-1 Env of NIH-040_Ce703010054 2A2 (HIV-1)
[13] = target: HIV-1 Env of NIH-052_CNE30 (HIV-1)
[14] = target: HIV-1 Env of NIH-065_191955 A11 (HIV-1)
[15] = target: HIV-1 Env of NIH-068_620345.c01 (HIV-1)
[16] = target: HIV-1 Env of NIH-071_R1166.c01 (HIV-1)
[17] = target: HIV-1 Env of NIH-072_R3265.c06 (HIV-1)
[18] = target: HIV-1 Env of NIH-078_BJOX015000.11.5 (HIV-1)
[19] = target: HIV-1 Env of NIH-103_0815.v3.c3 (HIV-1)
[20] = target: HIV-1 Env of NIH-118_T255.34 (HIV-1)
[21] = target: HIV-1 Env of pseudovirus NAC_89.6 (HIV-1)
[22] = target: HIV-1 Env of pseudovirus NAC_94UG103 (HIV-1)
[23] = target: HIV-1 Env of pseudovirus NAC_ADA (HIV-1)
[24] = target: HIV-1 Env of pseudovirus NAC_DH12 (HIV-1)
[25] = target: HIV-1 Env of pseudovirus NAC_IAVIC22 (HIV-1)
[26] = target: HIV-1 Env of pseudovirus NAC_RHPA4.7 (HIV-1)
[27] = target: HIV-1 Env of pseudovirus NIH-005_TRO.11 (HIV-1)
[28] = target: HIV-1 Env of pseudovirus NIH-006_AC10.0.29 (HIV-1)
[29] = target: HIV-1 Env of pseudovirus NIH-007_CAAN5342.A2 (HIV-1)
[30] = target: HIV-1 Env of pseudovirus NIH-008_WEAU.d15.410.787 (HIV-1)
[31] = target: HIV-1 Env of pseudovirus NIH-027_CAP45.G3 (HIV-1)
[32] = target: HIV-1 Env of pseudovirus NIH-039_Ce2060 G9 (HIV-1)
[33] = target: HIV-1 Env of pseudovirus NIH-047_Ce704809221 1B3 (HIV-1)
[34] = target: HIV-1 Env of pseudovirus NIH-055_CNE58 (HIV-1)
[35] = target: HIV-1 Env of pseudovirus NIH-056_Q168ENVa2 (HIV-1)
[36] = target: HIV-1 Env of pseudovirus NIH-060_Q769ENVd22 (HIV-1)
[37] = target: HIV-1 Env of pseudovirus NIH-063_0330.v4.c3 (HIV-1)
[38] = target: HIV-1 Env of pseudovirus NIH-066_191084 B7.19 (HIV-1)
[39] = target: HIV-1 Env of pseudovirus NIH-073_C3347.c11 (HIV-1)
[40] = target: HIV-1 Env of pseudovirus NIH-074_C4118.c09 (HIV-1)
[41] = target: HIV-1 Env of pseudovirus NIH-075_CNE8 (HIV-1)
[42] = target: HIV-1 Env of pseudovirus NIH-077_BJOX009000.02.4 (HIV-1)
[43] = target: HIV-1 Env of pseudovirus NIH-082_X1193 c1 (clade G) (HIV-1)
[44] = target: HIV-1 Env of pseudovirus NIH-098_89.F1 2 25 (clade CD) (HIV-1)
[45] = target: HIV-1 Env of pseudovirus NIH-100_6041.v3.c23 (HIV-1)
[46] = target: envelope protein of control pseudovirus NAC_AMLV

Sequence of HIV-1 Env of NAC_JRCSF (HIV-1) (P20871 32-848 limits assumed): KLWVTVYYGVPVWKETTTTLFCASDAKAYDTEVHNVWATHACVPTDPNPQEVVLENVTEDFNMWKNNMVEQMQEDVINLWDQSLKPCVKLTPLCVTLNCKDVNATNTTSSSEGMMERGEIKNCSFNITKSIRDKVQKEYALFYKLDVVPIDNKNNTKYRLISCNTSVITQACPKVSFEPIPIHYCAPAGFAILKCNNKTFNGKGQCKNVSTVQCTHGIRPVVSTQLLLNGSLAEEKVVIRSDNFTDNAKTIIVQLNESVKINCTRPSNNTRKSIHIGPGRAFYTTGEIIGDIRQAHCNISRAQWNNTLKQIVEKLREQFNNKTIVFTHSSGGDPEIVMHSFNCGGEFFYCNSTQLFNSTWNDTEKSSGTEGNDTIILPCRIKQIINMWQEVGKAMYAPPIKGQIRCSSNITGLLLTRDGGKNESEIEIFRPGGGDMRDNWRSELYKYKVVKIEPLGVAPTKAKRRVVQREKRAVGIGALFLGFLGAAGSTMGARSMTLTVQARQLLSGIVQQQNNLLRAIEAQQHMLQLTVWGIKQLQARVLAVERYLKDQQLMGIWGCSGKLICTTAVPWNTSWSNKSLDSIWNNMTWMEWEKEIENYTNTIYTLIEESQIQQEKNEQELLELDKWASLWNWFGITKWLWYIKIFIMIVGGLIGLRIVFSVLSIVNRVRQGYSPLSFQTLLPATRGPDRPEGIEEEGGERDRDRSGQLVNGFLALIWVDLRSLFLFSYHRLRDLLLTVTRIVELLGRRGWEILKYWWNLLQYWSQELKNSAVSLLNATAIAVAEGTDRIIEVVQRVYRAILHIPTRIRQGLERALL

PGZL1 (antibody) gave an IC80 neutralization [1] greater than 50 µg/mL, an IC80 neutralization [2] greater than 50 µg/mL and an IC80 neutralization [3] greater than 50 µg/mL. The IC80 neutralization [4] was 40.2 µg/mL, the IC80 neutralization [5] was 22.2 µg/mL and the IC80 neutralization [6] was 14.9 µg/mL. The IC80 neutralization [7] was 5.19 µg/mL, the IC80 neutralization [8] was greater than 50 µg/mL and the IC80 neutralization [9] was 1.6 µg/mL. For the same substance, the IC80 neutralization [10] was greater than 50 µg/mL, the IC80 neutralization [11] was greater than 50 µg/mL and the IC80 neutralization [12] was greater than 50 µg/mL. It also gave an IC80 neutralization [13] greater than 50 µg/mL, an IC80 neutralization [14] of 8.56 µg/mL and an IC80 neutralization [15] greater than 50 µg/mL. The IC80 neutralization [16] was 19.5 µg/mL, the IC80 neutralization [17] was greater than 50 µg/mL and the IC80 neutralization [18] was 10.5 µg/mL. It also gave an IC80 neutralization [19] greater than 50 µg/mL, an IC80 neutralization [20] of 13.2 µg/mL and a neutralization IC50 [21] of 25.3 µg/mL. The neutralization IC50 [22] was 24.1 µg/mL, the neutralization IC50 [23] was 5.36 µg/mL and the neutralization IC50 [24] was 4.71 µg/mL. The neutralization IC50 [25] was 15.2 µg/mL, the neutralization IC50 [26] was greater than 50 µg/mL and the neutralization IC50 [27] was 2.88 µg/mL. For the same substance, the neutralization IC50 [28] was 4.64 µg/mL, the neutralization IC50 [29] was 34 µg/mL and the neutralization IC50 [30] was 10 µg/mL. For the same substance, the neutralization IC50 [31] was 18.3 µg/mL, the neutralization IC50 [32] was 15 µg/mL and the neutralization IC50 [33] was 0.738 µg/mL. It also gave a neutralization IC50 [34] of 3.55 µg/mL, a neutralization IC50 [35] of 21.7 µg/mL and a neutralization IC50 [36] of 20.2 µg/mL. It also gave a neutralization IC50 [37] of 22.1 µg/mL, a neutralization IC50 [38] of 30.9 µg/mL and a neutralization IC50 [39] of 0.055 µg/mL. The neutralization IC50 [40] was 8.37 µg/mL, the neutralization IC50 [41] was 0.247 µg/mL and the neutralization IC50 [42] was 3.97 µg/mL. It also gave an IC50 (µg/ml), TZM-bl cell neutralization assay, pseudovirus [43] of 5.31 µg/mL, an IC50 (µg/ml), TZM-bl cell neutralization assay, pseudovirus [44] greater than 50 µg/mL and a neutralization IC50 [45] greater than 50 µg/mL. The IC50 (µg/ml), TZM-bl cell neutralization assay, control pseudovirus [46] was greater than 50 µg/mL and the IC80 (µg/ml), TZM-bl pseudovirus neutralization [46] was greater than 50 µg/mL.
VRC01 (antibody) gave an IC80 neutralization [1] of 0.23 µg/mL, an IC80 neutralization [2] of 0.69 µg/mL and an IC80 neutralization [3] of 0.535 µg/mL. The IC80 neutralization [4] was 0.414 µg/mL, the IC80 neutralization [5] was 0.659 µg/mL and the IC80 neutralization [6] was 1.48 µg/mL. It also gave an IC80 neutralization [7] of 0.193 µg/mL, an IC80 neutralization [8] of 6.95 µg/mL and an IC80 neutralization [9] greater than 50 µg/mL. For the same substance, the IC80 neutralization [10] was 3.63 µg/mL, the IC80 neutralization [11] was 0.068 µg/mL and the IC80 neutralization [12] was 0.595 µg/mL. The IC80 neutralization [13] was 2.38 µg/mL, the IC80 neutralization [14] was 0.467 µg/mL and the IC80 neutralization [15] was greater than 50 µg/mL. For the same substance, the IC80 neutralization [16] was 1.95 µg/mL, the IC80 neutralization [17] was 0.502 µg/mL and the IC80 neutralization [18] was 0.242 µg/mL. It also gave an IC80 neutralization [19] of 0.07 µg/mL, an IC80 neutralization [20] of 0.925 µg/mL and a neutralization IC50 [21] of 0.807 µg/mL. The neutralization IC50 [22] was 0.187 µg/mL, the neutralization IC50 [23] was 0.314 µg/mL and the neutralization IC50 [24] was 0.227 µg/mL. For the same substance, the neutralization IC50 [25] was 0.348 µg/mL, the neutralization IC50 [26] was 0.035 µg/mL and the neutralization IC50 [27] was 0.231 µg/mL. The neutralization IC50 [28] was 0.867 µg/mL, the neutralization IC50 [29] was 0.691 µg/mL and the neutralization IC50 [30] was 0.076 µg/mL. The neutralization IC50 [31] was 1.92 µg/mL, the neutralization IC50 [32] was 0.109 µg/mL and the neutralization IC50 [33] was 0.32 µg/mL. It also gave a neutralization IC50 [34] of 0.083 µg/mL, a neutralization IC50 [35] of 0.056 µg/mL and a neutralization IC50 [36] of 0.025 µg/mL. The neutralization IC50 [37] was 0.033 µg/mL, the neutralization IC50 [38] was 0.049 µg/mL and the neutralization IC50 [39] was 0.063 µg/mL. The neutralization IC50 [40] was 0.05 µg/mL, the neutralization IC50 [41] was 0.126 µg/mL and the neutralization IC50 [42] was 0.565 µg/mL. It also gave an IC50 (µg/ml), TZM-bl cell neutralization assay, pseudovirus [43] of 0.098 µg/mL, an IC50 (µg/ml), TZM-bl cell neutralization assay, pseudovirus [44] greater than 50 µg/mL and a neutralization IC50 [45] of 0.023 µg/mL. It also gave an IC50 (µg/ml), TZM-bl cell neutralization assay, control pseudovirus [46] greater than 50 µg/mL and an IC80 (µg/ml), TZM-bl pseudovirus neutralization [46] greater than 50 µg/mL.
